Measurements as given in patent US20250057968A1, “ANTI-DLL3 ANTIBODY AND PHARMACEUTICAL USE THEREOF, AND ANTIBODY-DRUG CONJUGATE CONTAINING ANTI-DLL3 ANTIBODY” (Jiangsu Hengrui Pharmaceuticals Co., Ltd., priority 2021, published 2025).

B1: Hu6 (antibody, human IgG1, kappa, V domains shown)
VH: EVQLVQSGSELKKPGASVKVSCKASGYTFTDYYMNWVRQAPGQGLEWMGIINPYSGVTIYNHKFKGRFALSVDKSSNTAYLQISSLKAEDTAVYYCARQDSLLDYAMDYWGQGTTVTVSS
VL: DIQMTQSPSSLSASVGDRVTITCHASQGISGNMGWLQQKPGKAPKGLIYHGANLEDGVPSRFSGSGSGADYTLTISSLQPEDFADYYCVQYAQFPYTFGGGTKVEIKR
notes: also called hAb6L4H12
B2: Hu100 (antibody, human IgG1, kappa, V domains shown)
VH: EVQLVESGGGLVKPGGSLRLSCAASGFTFSDSGMHWIRQAPGKGLEWVSYISSGSSTIHYADTVKGRFTISRDNAKNSLYLQMNSLRAEDTAVYYCASPLYYYGRSYNAVAYWGQGTTVTVSS
VL: DIQMTQSPSSLSASVGDRVTITCHASQNINVWLSWYQQKPGKVPKLLIYKASDLHTGVPSRFSGSGSGTDFTLTISSLQPEDVATYYCQQGQSYPLTFGGGTKVEIKR
notes: also called hAb100L1H1

Columns and labels:
[1] = target: T1, Human DLL3 full-length protein on cells (human, UniProt Q9NYJ7 27-618); assay: cell-based or functional assay
T1 sequence: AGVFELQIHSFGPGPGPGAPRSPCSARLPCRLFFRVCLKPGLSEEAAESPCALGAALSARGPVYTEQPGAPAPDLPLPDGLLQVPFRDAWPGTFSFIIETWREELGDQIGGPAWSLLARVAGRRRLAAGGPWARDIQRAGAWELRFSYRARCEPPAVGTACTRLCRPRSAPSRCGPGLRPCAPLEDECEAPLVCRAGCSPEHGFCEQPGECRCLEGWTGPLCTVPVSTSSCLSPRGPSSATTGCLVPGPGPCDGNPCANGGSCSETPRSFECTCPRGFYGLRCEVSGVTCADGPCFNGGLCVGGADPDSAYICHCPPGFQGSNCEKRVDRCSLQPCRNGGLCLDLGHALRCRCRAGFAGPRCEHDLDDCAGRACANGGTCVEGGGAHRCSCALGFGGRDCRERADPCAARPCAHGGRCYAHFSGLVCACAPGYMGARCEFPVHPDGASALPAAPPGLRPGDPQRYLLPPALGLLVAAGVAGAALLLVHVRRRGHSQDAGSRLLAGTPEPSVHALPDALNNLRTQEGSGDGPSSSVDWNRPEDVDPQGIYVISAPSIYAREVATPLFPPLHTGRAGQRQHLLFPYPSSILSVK

[2] = target: T2, Human DLL1 full-length protein on CHO-s cells (human, UniProt O00548 18-723); assay: FACS on human DLL1/CHO-s cells
T2 construct: also called human DLL1/CHO-s
T2 sequence: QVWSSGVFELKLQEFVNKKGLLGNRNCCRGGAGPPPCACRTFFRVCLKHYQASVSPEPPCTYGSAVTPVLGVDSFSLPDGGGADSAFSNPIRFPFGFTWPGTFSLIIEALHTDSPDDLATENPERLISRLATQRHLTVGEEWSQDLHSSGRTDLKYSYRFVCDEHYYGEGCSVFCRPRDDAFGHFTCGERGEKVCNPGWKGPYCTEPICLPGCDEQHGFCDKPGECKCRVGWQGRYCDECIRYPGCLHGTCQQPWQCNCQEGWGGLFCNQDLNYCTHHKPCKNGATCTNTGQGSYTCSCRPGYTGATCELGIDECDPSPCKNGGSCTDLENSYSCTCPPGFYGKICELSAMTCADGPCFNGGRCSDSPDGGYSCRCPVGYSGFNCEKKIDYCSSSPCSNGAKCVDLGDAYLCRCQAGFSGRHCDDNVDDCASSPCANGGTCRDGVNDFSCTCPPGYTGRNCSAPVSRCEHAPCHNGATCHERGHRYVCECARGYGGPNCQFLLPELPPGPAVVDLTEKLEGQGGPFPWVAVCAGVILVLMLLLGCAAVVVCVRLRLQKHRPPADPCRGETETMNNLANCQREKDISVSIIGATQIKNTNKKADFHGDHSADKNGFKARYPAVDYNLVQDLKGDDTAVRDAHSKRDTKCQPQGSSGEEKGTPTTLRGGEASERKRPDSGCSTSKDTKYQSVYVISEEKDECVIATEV
Procedure: Stably transfected human DLL1/CHO-s and human DLL4/CHO-s cells were suspended at 1×10⁶/mL in FACS buffer (containing 1% BSA and pH 7.4 PBS), and the cell suspensions were added to a 96-well round-bottom plate (Corning, 3795) at 100 µL/well. The plate was centrifuged at 300 g for 5 min, and the supernatant was removed. Test antibodies were added at 100 μL/well, and the plate was incubated in the dark in a refrigerator at 4° C. for 1 h. After 3 washes by centrifugation at 300 g, working concentrations of PE F(ab′)2-goat anti-human IgG Fc secondary antibody (invitrogen, H10104) were added. The plate was incubated in the dark in a refrigerator at 4° C. for 40 min. After 3 washes by centrifugation at 300 g, the geometric mean fluorescence intensity was measured on an Invitrogen flow cytometer.

[3] = target: cynomolgus monkey DLL3 (KACTUS, DLL-RM103) (cynomolgus monkey); assay: SPR (Biacore 8K), antibody captured on Protein A chip, 1:1 fit
[4] = target: T3, human DLL3 (ACRO, DLL3-H52H4) (human, UniProt Q9NYJ7 27-479); assay: as above
T3 construct: bought antigen of the Biacore assay; construct not described
T3 sequence (looked up): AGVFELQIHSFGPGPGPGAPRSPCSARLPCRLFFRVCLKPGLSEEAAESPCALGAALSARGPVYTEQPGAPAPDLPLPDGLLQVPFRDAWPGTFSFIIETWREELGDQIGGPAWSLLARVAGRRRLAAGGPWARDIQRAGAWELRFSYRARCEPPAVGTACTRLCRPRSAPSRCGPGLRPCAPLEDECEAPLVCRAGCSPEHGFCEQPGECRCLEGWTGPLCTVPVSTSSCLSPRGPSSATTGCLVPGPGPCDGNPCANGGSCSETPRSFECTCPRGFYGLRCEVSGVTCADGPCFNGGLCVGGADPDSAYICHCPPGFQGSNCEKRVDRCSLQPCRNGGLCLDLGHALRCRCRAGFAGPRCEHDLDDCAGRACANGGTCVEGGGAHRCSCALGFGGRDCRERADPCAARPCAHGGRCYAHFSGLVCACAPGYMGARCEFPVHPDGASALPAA
Text: Test antibodies were affinity-captured with a Protein A biosensor chip (Cat. #29127556, Cytiva) for 18 seconds, and then the antigens human DLL3 (ACRO, DLL3-H52H4), cynomolgus monkey DLL3 (KACTUS, DLL-RM103), and mouse DLL3 (KACTUS, DLL-MM103) were allowed to flow over the surface of the chip for 180 seconds, followed by 600 seconds of dissociation. Reaction signals were detected in real time using a Biacore 8K (Cytiva) instrument to obtain association and dissociation curves. After the dissociation in each experimental cycle, the biosensor chip was washed and regenerated with a 10 mM glycine-hydrochloric acid solution (pH 1.5) (Cat. #BR-1003-54, Cytiva). A 1:1 model was fit to the data. The results are shown in Table 12-1, Table 12-2, and Table 12-3.

Binder	IC50 (nM), cell killing caused by endocytosis of antibodies (DT3C, DMS53/DLL3 cells) [1]	Imax, cell killing caused by endocytosis of antibodies (DT3C, DMS53/DLL3 cells) [1]	binding result [2]	Kd [3]	Kd [4]
B1	0.56 nM	87.2	no binding	1.31 nM	0.594 nM
B2	1.47 nM	86.1	no binding	1.11 nM	0.471 nM
